Measurements as given in the DeepSol protein solubility set.

assay: soluble on expression in E. coli; label from the status in PepcDB or PDB records

Sequence	soluble on expression in E. coli
MKLSRISAINWNKIQDDKDLEVWNRLTSNFWLPEKVPLSNDIPAWQTLSAAEQQLTIRVFTGLTLLDTIQNIAGAPSLMADAITPHEEAVLSNISFMEAVHARSYSSIFSTLCQTKEVDAAYAWSEENPPLQRKAQIILAHYVSDEPLKKKIASVFLESFLFYSGFWLPMYFSSRGKLTNTADLIRLIIRDEAVHGYYIGYKYQIALQKLSAIEREELKLFALDLLMELYDNEIRYTEALYAETGWVNDVKAFLCYNANKALMNLGYEALFPPEMADVNPAILAALSPNADENHDFFSGSGSSYVMGKTVETEDEDWNF	soluble
MKLTPKELDKLMLHYAGELAKKRKEKGIKLNYVEAVALISAHIMEEARAGKKTAAELMQEGRTLLKPDDVMDGVASMIHEVGIEAMFPDGTKLVTVHTPIEANGKLVPGELFLKNEDITINEGKKAVSVKVKNVGDRPVQIGSHFHFFEVNRCLDFDREKTFGKRLDIAAGTAVRFEPGEEKSVELIDIGGNRRIFGFNALVDRQADNESKKIALHRAKERGFHGAKSDDNYVKTIKE	soluble
MKMELKEGGKIFFRWFRKTFGEEVTDEGIIHRLEPPNLIEFSWNTYEDGFRSRVKMEFFPSSYNGTWVQVEDHTIVLNEEDMKIKLECAVGWGEMLTLAKIWIEYGISTLENP	not soluble
MKMINKLIVPVTASALLLGACGASATDSKENTLISSKAGDVTVADTMKKIGKDQIANASFTEMLNKILADKYKNKVNDKKIDEQIEKMQKQYGGKDKFEKALQQQGLTADKYKENLRTAAYHKELLSDKIKISDSEIKEDSKKASHILIKVKSKKSDKEGLDDKEAKQKAEEIQKEVSKDPSKFGEIAKKESMDTGSAKKDGELGYVLKGQTDKDFEKALFKLKDGEVSEVVKSSFGYHIIKADKPTDFNSEKQSLKEKLVDQKVQKNPKLLTDAYKDLLKEYDVDFKDRDIKSVVEDKILNPEKLKQGGAQGGQSGMSQ	soluble
MKMNYHLSTSSYTTSMLSCTVLDDDIRYEKLSWKLDEAEMQGLIM	soluble
MKNDRTLQAIGRQLKAMGCERFDIGVRDATTGQMMNREWSAAEVLQNTPWLKRMNAQGNDVYIRPAEQERHGLVLVDDLSEFDLDDMKAEGREPALVVETSPKNYQAWVKVADAAGGELRGQIARTLASEYDADPASADSRHYGRLAGFTNRKDKHTTRAGYQPWVLLRESKGKTATAGPALVQQAGQQIEQAQRQQEKARRLASLELPERQLSRHRRTALDEYRSEMAGLVKRFGDDLSKCDFIAAQKLASRGRSAEEIGKAMAEASPALAERKPGHEADYIERTVSKVMGLPSVQLARAELARAPAPRQRGMDRGGPDFSM	soluble
MKNIAIIGASGYTGAQLTALVHAESELSIQGLYVSENSLDKGRALADLYPVYSHIELTLSPLTEEAKANIVAEADAVVLATEHSVSLHLAAWFYSQGLAVFDLSGAYRFSDVAQYPKWYGFEHEYPEVLAKAVYGLAEWNAKDVAATKMIAVPGCYPTASLTALKPLKNLLTSAYPVINAVSGVTGAGRKAQLHTSFCEVSLTPYGVLGHRHQPEIATQLGQEVIFTPHLGNFKRGILATITVQLKPGTTTADVAAAYSVYDQAPLVTVKQNQFPKVDDVVLTPNCHLGWKFDESSGYLVVASAIDNLMKGAASQALQCIKIHFNL	not soluble
MKNICFINGSPRSKKANSTLYLNLIDKSLDSKNYTKYYIDTTSSIKGDLESTFKTLLDADYIILAFPLYVYSMPSLLVRFLEDYYIYLKNKDTISQKTNLYAVVNCGFPDAKMNVEALKIVFNCCKKLNINFRFGIGIGAGEFVNFSKNNPLLNKLSSCVYKSINKITYDIENQVSIEINNIFVNPKIPRRLFFIFGHIFWKKWAKRNGIKISALFDKPLEHHHHHH	not soluble
MKNIIRTPETHPLTWRLRDDKQPVWLDEYRSKNGYEGARKALTGLSPDEIVNQVKDAGLKGRGGAGFSTGLKWSLMPKDESMNIRYLLCNADEMEPGTYKDRLLMEQLPHLLVEGMLISAFALKAYRGYIFLRGEYIEAAVNLRRAIAEATEAGLLGKNIMGTGFDFELFVHTGAGRYICGEETALINSLEGRRANPRSKPPFPATSGVWGKPTCVNNVETLCNVPAILANGVEWYQNISKSKDAGTKLMGFSGRVKNPGLWELPFGTTAREILEDYAGGMRDGLKFKAWQPGGAGTDFLTEAHLDLPMEFESIGKAGSRLGTALAMAVDHEINMVSLVRNLEEFFARESCGWCTPCRDGLPWSVKILRALERGEGQPGDIETLEQLCRFLGPGKTFCAHAPGAVEPLQSAIKYFREEFEAGIKQPFSNTHLINGIQPNLLKERWLEHHHHHH	not soluble
MKNLAIFDLDNTLINTDSDHAWPQYLIKKGLVDAAETEAQNEKFYRDYQNGCLDIDAFLKFHLAPLARYSKEELAEFHREFMAEYIIPHISPMQRMLVQSHQMAGDETLVISSTNEFIITPVCHLFGITNIIGTQLETGSDGRYTGNYIGTPSLKEGKITRLNQWLAERGETLQSYGKTYFYSDSKNDLPLLRLVSEPVAVNPDAELEKEAKEKGWPVLNFK	soluble
MKNLINWFEIPVTDMARAIAFYEQVMQISLRRETMDGADLAVFPYAEPGPGGALIKQDDVAPVAQGVVIYLHTADLLASIERVVLAGGKCVLEPMVPGDDIGTIALFIDSEGNRIGLHQPALEHHHHHH	not soluble
MKNLTTIKQTNKNVKQERRKKYADLAIQGTNNSSIASKRSVELLYLPKLSSANNFQMDKNNKLLEYFKFFVPKKIKRSPCINRGYWLRLFAIRSRLNSIIEQTPQDKKIVVVNLGCGYDPLPFQLLDTNNIQSQQYHDRVSFIDIDYSDLLKIKIELIKTIPELSKIIGLSEDKDYVDDSNVDFLTTPKYLARPCDLNDSKMFSTLLNECQLYDPNVVKVFVAEVSLAYMKPERSDSIIEATSKMENSHFIILEQLIPKGPFEPFSKQMLAHFKRNDSPLQSVLKYNTIESQVQRFNKLGFAYVNVGDMFQLWESADEATKKELLKVEPFDELEEFHLFCHHYVLCHATNYKEFAFTQGFLFDRSISEINLTVDEDYQLLECECPINRKFGDVDVAGNDVFYMGGSNPYRVNEILQLSIHYDKIDMKNIEVSSSEVPVARMCHTFTTISRNNQLLLIGGRKAPHQGLSDNWIFDMKTREWSMIKSLSHTRFRHSACSLPDGNVLILGGVTEGPAMLLYNVTEEIFKDVTPKDEFFQNSLVSAGLEFDPVSKQGIILGGGFMDQTTVSDKAIIFKYDAENATEPITVIKKLQHPLFQRYGSQIKYITPRKLLIVGGTSPSGLFDRTNSIISLDPLSETLTSIPISRRIWEDHSLMLAGFSLVSTSMGTIHIIGGGATCYGFGSVTNVGLKLIAIAK	soluble
MKNNKDEKIRISIINGFLGSGKTTLLTHYISELLKNDEKIKIIMNEFGTFDIDSNSISNEIEVHSLINGCVCCDLKQELVYELKAIALKGDVNHVIIETTGIAHPLELLVACQDPQIVNFFEKPIIYGVLDATRFLERHQYTENTVSLMEDQLKLSDMIIINKIDLITDDRLERIDKQLGMICASIPTYKTTYGKVSLEELDLTVKDREISSHHHHHHGIKSMTYTFTGPIDRQLFYQFIMKLPESVLRLKGYVSFRDQPNAIYEFQYAYGLPDYGIIGMQLPLTIVIIGETLDTNHIRNQLDMLQFT	not soluble
MKNNKPICFYDIYCFKPQECFKRNDINLLEDKLKRYSKITFLRNKENPEIIFLLGGDGSFINFINQQWKKNVKIVGINYGQLGFYSSYDSIKTINLDEIIDENMYYNPLLLKVSINNQNFFYCLNELSLFSNELVSFDISINDYPYEKFRGSGLLFVTPSGSTGKNKTAFGPIIFNNHENFIMTEIFPVNHLKYSSLNAPVVFRKDYKISLTNIKFKKSFSVAIDGNIINFSDKINDIKVETIQASSKIHGLNNFKKYIDKLNKSFIKGEMAGDPLEHHHHHH	soluble
MKNTGTSVKFGESSTQALIRAAYRQVFGRDLYEGQRLSVAEIQLENGDISVREFIKRLAKSELFLKLYWAPHYVCKAIEYMHRRLLGRPTYGRQEMNQYFDIASKQGFYAVVEAMIDSKEYSDAFGEDTVPYERYLTPGGLEHHHHHH	not soluble
